According to paper doi:10.1101/2023.08.24.554544 (bioRxiv, 2023):

T1: GST-tagged A. thaliana Rpn10 (AtRpn10) vWA domain (Arabidopsis thaliana, UniProt P55034 2-193)
T1 construct: also called GST-AtRpn10; GST-Rpn10vWA
T1 sequence: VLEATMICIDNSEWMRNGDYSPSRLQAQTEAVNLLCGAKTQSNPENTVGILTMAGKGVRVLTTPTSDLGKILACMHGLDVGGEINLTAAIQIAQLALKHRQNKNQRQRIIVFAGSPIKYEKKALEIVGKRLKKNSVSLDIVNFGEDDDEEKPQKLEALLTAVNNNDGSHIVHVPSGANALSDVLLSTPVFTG


Target: T1, GST-tagged A. thaliana Rpn10 (AtRpn10) …
Experiment: SPR
Settings: both partners purified

Row | Binder | Kd
1 | onion yellows phytoplasma (OY-M strain) SAP05 (OY_SAP05) (natural protein, source: E. coli BL21(DE3), purified (Ni-NTA, Superdex 75)) APHEERVGDMRIVNITFSDINSIKNFQPFSQYFDFTLTGPRYNGNIAQFAMIWKIKNPPHNLLGVFFDNNTRDDEDDKYTLEELKQMGNGAKNMYIFWQYEQK | 398 ± 39 nM
2 | aster yellows witches'-broom phytoplasma SAP05 (AYWB_SAP05), mature, 33-135 (natural protein, source: E. coli BL21(DE3), purified (Ni-NTA, Superdex 75)) APNEEFVGDMRIVNVNLSNIDILKKHETFKKYFDFTLTGPRYNGNIAEFAMIWKIKNPPLNLLGVFFDDGTRDDEDDKYILEELKQIGNGAKNMYIFWQYEQK | 400 ± 39 nM
